Data reported in US20190275125A1.
Like-named read-outs stand apart in the source and are kept apart here.

How the values were obtained:
Assay in all cases: MSD inhibition assay, abeta 1-28 coated plates
[1] = target: Biosimilar (BS) bapineuzumab
[2] = target: Biosimilar (BS) bapineuzumab; remark: listed apart in the source
[3] = target: Biosimilar (BS) bapineuzumab; remark: listed apart in the source

Chain of Biosimilar (BS) bapineuzumab (chain, as listed by the source, chain 1 of 2): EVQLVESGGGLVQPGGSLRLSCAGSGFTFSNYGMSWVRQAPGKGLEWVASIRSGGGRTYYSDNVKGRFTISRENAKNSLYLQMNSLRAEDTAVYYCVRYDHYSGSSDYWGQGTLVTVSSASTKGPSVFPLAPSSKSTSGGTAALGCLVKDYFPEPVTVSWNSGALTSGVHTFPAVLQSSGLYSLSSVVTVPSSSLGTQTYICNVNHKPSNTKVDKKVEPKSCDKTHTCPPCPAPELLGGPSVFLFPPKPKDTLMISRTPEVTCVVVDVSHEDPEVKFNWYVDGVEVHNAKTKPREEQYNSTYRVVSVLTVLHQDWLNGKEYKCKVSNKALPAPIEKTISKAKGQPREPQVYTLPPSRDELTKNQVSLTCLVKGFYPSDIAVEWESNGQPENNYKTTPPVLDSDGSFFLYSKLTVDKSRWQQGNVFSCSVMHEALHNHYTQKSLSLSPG
Chain of Biosimilar (BS) bapineuzumab (chain, as listed by the source, chain 2 of 2): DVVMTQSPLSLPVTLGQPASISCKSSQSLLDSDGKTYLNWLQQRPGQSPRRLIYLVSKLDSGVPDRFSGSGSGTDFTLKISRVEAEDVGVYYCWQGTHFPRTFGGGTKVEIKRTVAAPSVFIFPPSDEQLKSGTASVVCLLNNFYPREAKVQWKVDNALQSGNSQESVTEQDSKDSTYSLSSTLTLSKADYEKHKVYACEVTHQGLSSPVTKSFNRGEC

B1: abeta 1-12 trimer construct, P05067 672-683; P05067 672-683; P05067 672-683 (peptide)
peptide: DAEFRHDSGYEVGGGGGGGGDAEFRHDSGYEVGGGGGGGGDAEFRHDSGYEV
modifications: not checked
IC50 [1]: 19 nM
IC50 [2]: 10 nM
IC50 [3]: 10 to 40 nM
